Measurements reported in IntAct's records for PubMed 33986552.

Biological target: GMPPA, Q96IJ6-1
Sequence (Q96IJ6 whole entry): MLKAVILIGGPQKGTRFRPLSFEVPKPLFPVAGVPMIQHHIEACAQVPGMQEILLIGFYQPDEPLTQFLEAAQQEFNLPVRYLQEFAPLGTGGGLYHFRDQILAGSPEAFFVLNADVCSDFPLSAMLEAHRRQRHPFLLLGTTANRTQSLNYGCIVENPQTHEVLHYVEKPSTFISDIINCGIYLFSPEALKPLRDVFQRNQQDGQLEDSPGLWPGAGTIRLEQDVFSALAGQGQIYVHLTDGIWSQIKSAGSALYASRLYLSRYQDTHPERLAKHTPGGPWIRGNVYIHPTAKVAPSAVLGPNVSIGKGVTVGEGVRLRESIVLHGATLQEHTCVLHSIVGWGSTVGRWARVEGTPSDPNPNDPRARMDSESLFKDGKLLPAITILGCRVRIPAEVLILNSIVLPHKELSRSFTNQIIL

Mannose-1-phosphate guanylyltransferase catalytic subunit beta (Homo sapiens), Q9Y5P6-1 D334N, sequence (Q9Y5P6 whole entry D334N): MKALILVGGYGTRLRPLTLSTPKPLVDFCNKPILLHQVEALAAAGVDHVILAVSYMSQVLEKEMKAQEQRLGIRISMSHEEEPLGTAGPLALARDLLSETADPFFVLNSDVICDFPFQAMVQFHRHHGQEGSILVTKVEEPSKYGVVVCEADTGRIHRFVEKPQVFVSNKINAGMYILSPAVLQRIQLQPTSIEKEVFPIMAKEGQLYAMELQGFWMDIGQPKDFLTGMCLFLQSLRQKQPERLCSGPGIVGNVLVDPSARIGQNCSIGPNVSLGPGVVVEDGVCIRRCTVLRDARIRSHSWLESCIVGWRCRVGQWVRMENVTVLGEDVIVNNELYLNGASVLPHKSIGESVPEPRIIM
Mannose-1-phosphate guanylyltransferase catalytic subunit beta (Homo sapiens), Q9Y5P6-1 R357H, sequence (Q9Y5P6 whole entry R357H): as the sequence (Q9Y5P6 whole entry D334N) above, with N334D, R357H counted along it
Mannose-1-phosphate guanylyltransferase catalytic subunit beta (Homo sapiens), Q9Y5P6-1 L303F, sequence (Q9Y5P6 whole entry L303F): as the sequence (Q9Y5P6 whole entry D334N) above, with L303F, N334D counted along it
Mannose-1-phosphate guanylyltransferase catalytic subunit beta (Homo sapiens), Q9Y5P6-1 R293W, sequence (Q9Y5P6 whole entry R293W): as the sequence (Q9Y5P6 whole entry D334N) above, with R293W, N334D counted along it
Mannose-1-phosphate guanylyltransferase catalytic subunit beta (Homo sapiens), Q9Y5P6-1 C266Y, sequence (Q9Y5P6 whole entry C266Y): as the sequence (Q9Y5P6 whole entry D334N) above, with C266Y, N334D counted along it

| Substance | effect of a mutation on the interaction |
| --- | --- |
| Mannose-1-phosphate guanylyltransferase catalytic subunit beta (Homo sapiens), Q9Y5P6-1 C266Y | with no effect |
| Mannose-1-phosphate guanylyltransferase catalytic subunit beta (Homo sapiens), Q9Y5P6-1 L303F | with no effect |
| Mannose-1-phosphate guanylyltransferase catalytic subunit beta (Homo sapiens), Q9Y5P6-1 R357H | decreasing interaction strength |
| Mannose-1-phosphate guanylyltransferase catalytic subunit beta (Homo sapiens), Q9Y5P6-1 R293W | with no effect |
| Mannose-1-phosphate guanylyltransferase catalytic subunit beta (Homo sapiens), Q9Y5P6-1 D334N | with no effect |
